Molecular target: ATP5B protein (UniProt P06576)
Test: SPR, ATP5B amine-coupled to CM5 chip, peptide in flow at 50 µl/min; binding relative to SEQ ID NO: 12

Sequence of ATP5B protein (P06576 48-529 limits assumed): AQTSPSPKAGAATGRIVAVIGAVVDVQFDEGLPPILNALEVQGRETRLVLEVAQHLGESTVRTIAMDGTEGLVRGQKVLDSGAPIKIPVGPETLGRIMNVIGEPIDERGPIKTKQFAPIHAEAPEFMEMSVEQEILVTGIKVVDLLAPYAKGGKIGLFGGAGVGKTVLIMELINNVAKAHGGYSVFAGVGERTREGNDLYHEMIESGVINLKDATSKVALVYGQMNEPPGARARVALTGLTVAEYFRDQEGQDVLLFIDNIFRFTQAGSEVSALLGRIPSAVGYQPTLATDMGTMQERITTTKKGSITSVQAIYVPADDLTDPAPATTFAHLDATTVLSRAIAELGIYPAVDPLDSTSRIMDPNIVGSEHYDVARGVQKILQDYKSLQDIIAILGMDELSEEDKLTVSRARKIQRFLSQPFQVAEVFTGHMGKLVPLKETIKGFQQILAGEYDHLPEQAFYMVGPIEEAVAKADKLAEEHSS

Row | Binding (%) | Binder
1 | 100 | VDRAAGSIREAGGAFGKREQAEEERYFR [Shortened substance (8-35) amino acid Ala substituted (11)]
2 | 104 | VDAGAGSIREAGGAFGKREQAEEERYFR [Shortened substance (8-35) amino acid Ala substituted (10)]
3 | 100 | VDRGAGSIREAGGAFGKREQAEEERYFR [Shortened substance (8-35)]
4 | 97 | VDRGAGSIAEAGGAFGKREQAEEERYFR [Shortened substance (8-35) amino acid Ala substituted (16)]
5 | 91.6 | VARGAGSIREAGGAFGKREQAEEERYFR [Shortened substance (8-35) amino acid Ala substituted (9)]
6 | 94 | VDRGAGSIREAGGAAGKREQAEEERYFR [Shortened substance (8-35) amino acid Ala substituted (22)]
7 | 110 | VDRGAGSIREAGGAFGKREQAEEERYFA [Shortened substance (8-35) amino acid Ala substituted (35)]
8 | 426 | VDRGAGSIREAGGAFGKREQAEEEAYFR [Shortened substance (8-35) amino acid Ala substituted (32)]
9 | 146 | VDRGAGSIREAGGAFGKREQAEEERAFR [Shortened substance (8-35) amino acid Ala substituted (33)]
10 | 101 | ADRGAGSIREAGGAFGKREQAEEERYFR [Shortened substance (8-35) amino acid Ala substituted (8)]
11 | 89.6 | VDRGAGSIREAAGAFGKREQAEEERYFR [Shortened substance (8-35) amino acid Ala substituted (19)]
12 | 94.1 | VDRGAGSIREAGGAFGKRAQAEEERYFR [Shortened substance (8-35) amino acid Ala substituted (26)]
13 | 98.5 | VDRGAASIREAGGAFGKREQAEEERYFR [Shortened substance (8-35) amino acid Ala substituted (13)]
14 | 92.1 | VDRGAGSIREAGGAFGKREQAEEERYAR [Shortened substance (8-35) amino acid Ala substituted (34)]
15 | 89.5 | VDRGAGSIREAGGAFGKREAAEEERYFR [Shortened substance (8-35) amino acid Ala substituted (27)]
16 | 158 | VDRGAGSIREAGGAFGKREQAEEARYFR [Shortened substance (8-35) amino acid Ala substituted (31)]
17 | 102 | VDRGAGSIREAGGAFAKREQAEEERYFR [Shortened substance (8-35) amino acid Ala substituted (23)]
18 | 99.3 | VDRGAGSAREAGGAFGKREQAEEERYFR [Shortened substance (8-35) amino acid Ala substituted (15)]
19 | 96.7 | VDRGAGSIREAGGAFGKREQAAEERYFR [Shortened substance (8-35) amino acid Ala substituted (29)]
20 | 94 | VDRGAGSIREAGGAFGKREQAEAERYFR [Shortened substance (8-35) amino acid Ala substituted (30)]
21 | 169 | VDRGAGSIRAAGGAFGKREQAEEERYFR [Shortened substance (8-35) amino acid Ala substituted (17)]
22 | 98.8 | VDRGAGAIREAGGAFGKREQAEEERYFR [Shortened substance (8-35) amino acid Ala substituted (14)]
23 | 68 | VDRGAGSIREAGAAFGKREQAEEERYFR [Shortened substance (8-35) amino acid Ala substituted (20)]
24 | 100 | VDRGAGSIREAGGAFGAREQAEEERYFR [Shortened substance (8-35) amino acid Ala substituted (24)]
25 | 85.2 | VDRGAGSIREAGGAFGKAEQAEEERYFR [Shortened substance (8-35) amino acid Ala substituted (25)]
